Patent publication US9738880B2, “Lysosomal protein targeting sequence and therapeutic applications of same” (Children's Hospital Medical Center, priority 2013, dated 2017)
Entries after “also recorded” stand apart in the source; their conditions may differ.

What was measured:
ldLIMP2 = biological target: T1, ldLIMP2 (Homo sapiens, UniProt Q14108); test: Fluorescence polarization binding and competition of DDQRLLL GCase peptides to ldLIMP2; conditions: ldLIMP2 fixed at 1000 nM; FIG. 13
T1 construct: Purified luminal domain LIMP-2 (1d-LIMP2) was custom made (Sino Biological Inc., PRC.); purchased Sino Biological Inc
T1 sequence (Q14108 28-433 limits assumed): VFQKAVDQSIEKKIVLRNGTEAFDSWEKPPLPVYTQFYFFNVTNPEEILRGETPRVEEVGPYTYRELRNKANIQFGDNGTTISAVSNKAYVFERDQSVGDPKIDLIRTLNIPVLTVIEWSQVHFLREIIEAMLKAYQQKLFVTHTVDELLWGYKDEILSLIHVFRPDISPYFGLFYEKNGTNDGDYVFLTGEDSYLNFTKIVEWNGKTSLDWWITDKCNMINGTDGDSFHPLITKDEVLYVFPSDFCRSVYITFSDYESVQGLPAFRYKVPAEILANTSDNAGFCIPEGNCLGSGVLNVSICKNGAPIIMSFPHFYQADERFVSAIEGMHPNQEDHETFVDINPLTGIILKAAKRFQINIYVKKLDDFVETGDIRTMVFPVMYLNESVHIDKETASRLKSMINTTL
Procedure: FIG. 13A-FIG. 13B: Competition and binding of fluorescent labeled or unlabeled DDQRLLL (SEQ ID NO 14) GCase peptides to ldLIMP2. FIG. 13A depicts the δmP of the WT (DDQRLLL (SEQ ID NO 14)) or variously alanine substituted labeled peptides were plotted against the corresponding unlabeled peptide competitors. Note that the fixed ldLIMP2 concentration was 1000 nM or 20 times that used in similar studies (FIG. 7A-FIG. 7C). For all peptides the δmP were near or at background levels. FIG. 13B depicts the binding δmP for the various peptides as in FIG. 13A. The signals were near background levels for all peptides using concentrations 5 to 10 times that for DSPIIV (SEQ ID NO 15) and with a 20 times greater LIMP2 fixed concentration.
Fluorescence Polarization: The DSPIIV (SEQ ID NO 15) and its mutants, and DDQRLLL (SEQ ID NO 14) peptides (FITC labeled or non-labeled) were synthesized (American Peptide Co., Vista, Calif.). Lyophilized peptides were solubilized in acetonitrile and then were diluted at least 10,000-fold into the reactions for fluorescence polarization assessments. The reactions were done at least in duplicate at various peptide and LIMP-2 concentrations (SpectraMax M5, Molecular Device). Fluorescence polarization data were collected and analyzed with SoftMax Pro 5.0 software. Reaction mixtures contained 100 mM phosphate, pH 6.8 and 1 mM DTT.

GCase binding to ldLIMP2 = biological target: T2, GCase binding to ldLIMP2 (Homo sapiens, UniProt Q14108); test: Competitive immunoprecipitation of GCase with ldLIMP2 at increasing molar ratios of peptide
T2 construct: Purified luminal domain LIMP-2 (1d-LIMP2) was custom made (Sino Biological Inc., PRC.); purchased Sino Biological Inc
T2 sequence (Q14108 28-433 limits assumed): T1 sequence (Q14108 28-433 limits assumed)
Procedure: FIG. 8A-FIG. 8C: Immunoprecipitation of GCase in the presence of ldLIMP2 and increasing molar ratios of the WT (DSPIIV (SEQ ID NO 15)) peptide. FIG. 8A depicts immunoprecipitation of GCase and LIMP-2. Purified WT GCase was preincubated with purified ldLIMP2 in a molar ratio of 1:1. Then, unlabeled DSPIIV (SEQ ID NO 15) was added in varying molar excesses (0 to 5×, top of figure) over GCase, incubated, and then immunoprecipitated with Protein G-coupled anti-LIMP-2 antibody beads. The beads were then eluted and the eluants were analyzed for GCase and ldLIMP2 on Western blots using the specified antibodies. […] In the bottom panel, ldLIMP2 recovery was the same at all peptide ratios. FIG. 8B depicts immunoprecipitation of GCase and LIMP-2. Purified ldLIMP2 was preincubated with unlabeled WT peptide at various molar ratios. Then, purified WT GCase was added in a 1:1 molar ratio with ldLIMP2, incubated, and then immunoprecipitated and processed as in FIG. 8A. […] FIG. 8C depicts immunoprecipitation of GCase and LIMP-2. Purified WT GCase was preincubated with purified ldLIMP2 in a molar ratio of 1:1. Then peptide DDQRLLL, a potential candidate for the GCase ligand for ldLIMP2, was added in varying molar excesses over WT GCase, incubated, and then immunoprecipitated and processed as in FIG. 8A. […] DDQRLLL (SEQ ID NO 14) is a dileucine peptide outside of the localized targeting region of DSPIIVDITKD (SEQ ID NO 3) (see FIG. 3).
FIG. 14A-FIG. 14B: Immunoprecipitation of GCase in the presence of ldLIMP2 and increasing molar ratios of the WT (DDQRLLL (SEQ ID NO 14)) peptide. In FIG. 14A or FIG. 14B, ldLIMP2 and DDQRLLL (SEQ ID NO 14) were incubated before (as shown in FIG. 14A) or together with (as shown in FIG. 14B) GCase and analyzed as in FIG. 8A-FIG. 8C.
Immunoprecipitation and Competition Studies: To further evaluate the interaction of ldLIMP-2, WT GCase, and the DSPIIV (SEQ ID NO 15) peptide, competitive immunoprecipitation experiments were conducted using increasing concentrations of the WT peptide in competition with GCase for binding (FIG. 8A). […]

competition of bound GCase off ldLIMP2, in words (GCase binding to ldLIMP2; GCase preincubated with ldLIMP2 1:1, then peptide 0 to 5× molar excess): did not compete GCase off of ldLIMP2
Substance: DDQRLLL (GCase di-leucine sequence)
binding to ldLIMP2 (δmP), in words (ldLIMP2): lack of binding; also recorded: little or no binding | competition with GCase for ldLIMP2 binding, in words (GCase binding to ldLIMP2; ldLIMP2, peptide and GCase incubated together, up to 5× molar excess): did not complete with GCase; also recorded: does not compete with GCase | prevention of GCase binding to ldLIMP2, in words (GCase binding to ldLIMP2; peptide preincubated with ldLIMP2 before GCase was added, up to 5× molar): did not complete with GCase; also recorded: does not compete with GCase
